In patent publication US9850293B2, “Targeting trastuzumab-resistant HER2+ breast cancer with a HER3-targeting nanoparticle” (priority 2014, dated 2017):
“Also recorded” adds a separate entry of the source.

Tests used:
[1] = Particle size (cryoEM, dynamic light scattering); format: physicochemical; conditions: round particles
Protocol: (A) depicts a graphic of HerDox formed by non-covalent, serum-stable self-assembly, showing HerPBK10 with functional domains delineated, and electrophilic binding with Dox-intercalated ds-oligo. (B) depicts a CryoEM image of HerDox particles. (C) is a HPLC chromatogram of HerDox showing elution profile of Dox absorbance. […] (D) illustrates the protection of ds-oligo from serum nuclease digestion by HerPBK10. The ds-oligo was incubated for 20 min in 100% mouse serum (Abcam, Cambridge, Mass., USA) before PAGE and EtBr staining to visualize the DNA. (E) illustrates that HerDox remains stable in blood. […] N=3. *, p<0.05, compared to respective retentates.
FIG. 33 illustrates the formation of certain corroles. […] Table summarizes salient features of the three corroles.
In some embodiments, the corrole comprises a metallic chemical element. In some of these embodiments, the metal is a transition metal. In some embodiments, the metal is Iron (Fe), Manganese (Mn), or Gallium (Ga). In other embodiments, the corrole is non-metallated. Metallated and non-metallated corroles bind in protein pockets with negligible dissociation. […] Corrole assembly with HerPBK10 yields 25-35 corroles/protein, resulting in 10-20 nm round particles (FIG. 33-B) that withstand high-speed ultrafiltration.

MDA-MB-435 (HER2+) = test: Targeted toxicity, cell survival by MTT assay; format: cell-based, human
Protocol: FIG. 7 illustrates targeted toxicity. […] Cell titer was determined by metabolic (i.e. MTT) assay. FIG. 7 upper panel illustrates the effect of HerDox on MDA-MB-231 (HER2−) and MDA-MB-435 (HER2+) cell survival. Relative surviving cell numbers are represented as a % of corresponding untreated cells. […] Relative survival (as % of untreated cells) is shown for Day 3 of treatment.
FIG. 8 illustrates receptor specificity. MDA-MB-435 (HER2+) cells were incubated with free ligand (eHRG) at 10× molar excess of HerDox for one hour at 4° C. Media was aspirated to remove free eHRG and fresh media containing HerDox (0.5 μM) was added to cells. Cell survival was measured by MTT assay and represented as a % of relative untreated cell numbers.
N=3. […] Bar, about 4 μm. […] (E) compares HerDox and Dox on off-target tissue. […] Green fluorescence in nuclei indicates apoptosis (positive TUNEL stain).
By three days, HerDox reduced HER2+ cell numbers by over 75% whereas HER2− cell survival was unaffected (FIG. 7). […] These findings emphasize the importance of targeting by showing that the untargeted drug affects nontarget (i.e. HER2−) cells. […] To test receptor targeting, the inventors used free heregulin ligand (Her or eHRG) as a competitive inhibitor. […] As a final in vitro challenge, the inventors tested whether HerDox induces toxicity specifically to HER2+ cells in a mixed culture of HER2+ and HER2− breast cancer cells. To do this, the inventors produced a HER2− cell line tagged with green fluorescent protein (GFP) for cell identification in the mixed culture (FIG. 9-A). […] Altogether, these findings indicate that HerDox has the capacity to preferentially target toxicity to HER2+ cells. […] In serum-containing media, no such loss from HerDox is detectable. […] Co-migration of HerPBK10 bands further verified that the conjugates remained intact in the cell media.

BT474 parental cells = test: Tumor cell killing in culture; format: cell-based, human
Protocol: FIG. 21 depicts graph that show the results of the administration of HerDox on various cells. […] N=3. *=p<0.05 compared to parental. […] N=3.
N=3. *, p<0.05 compared to parental. […] N=3. […] Parental and resistant cell lines were treated with HerDox−/+HER3 blocking peptide (ErbB3 human; Prospec), and tested for cell survival 48 hours later. […] Treatments were compared to mock (saline)-treatment. […] N=3. *, p<0.05 compared to parental. […] N=3.
Parental cell lines were pre-treated with 0.5 mg/mL Tz for 24 hours before testing these cells for surface HER3 levels. […] Parental cell lines were pre-treated with 0.5 mg/mL Tz for 24 hours before testing these cells for HerPBK10 binding. […] SKBR3 Parental cells were treated with Tz at indicated concentrations (see upper X-axes) 4 and 24 hours before HerDox treatment and assayed for survival at 48-72 h after treatment. N=3. […] SK-474 Parental cells were treated with Tz at indicated concentrations (see upper X-axes) 4 and 24 hours before HerDox treatment and assayed for survival at 48-72 h after treatment. N=3. […] MDA-MB-435 non-resistant cells were treated with Tz at indicated concentrations (see upper X-axes) 4 and 24 hours before HerDox treatment and assayed for survival at 48-72 h after treatment. […] N=3. […] Tz-resistant cells were treated with Tz at indicated concentrations (see upper X-axes) 4 and 24 hours before HerDox treatment and assayed for survival at 48-72 h after treatment. N=3.
N=3. *, p<0.05 compared to parental. […] N=3. […] N=3. […] Tumor volumes were measured by calipers. […] Tumor volumes were measured by calipers. […]

[2] = test system: HER2+ tumors (MDA-MB-435); test: In vivo tumor toxicity (tumor growth); design: species or system mouse; conditions: 0.004 mg/kg with respect to Dox, daily tail vein injections for 7 days

B1: HerDox: non-covalent complex of HerPBK10, double-stranded oligonucleotide and intercalated Dox (Unit A+Unit B+Unit C) (conjugate)
chain: SHLVKCAEKEKTFCVNGGECFMVKDLSNPSRYLCKCQPGFTGARCTENVPMKVQNQEKAEELYQKMRRAAMYEEGPPPSYESVVSAAPVAAALGSPFDAPLDPPFVPPRYLRPTGGRNSIRYSELAPLFDTTRVYLVDNKSTDVASLNYQNDHSNFLTTVIQNNDYSPGEASTQTINLDDRSHWGGDLKTILHTNMPNVNEFMFTNKFKARVMVSRLPTKDNQVELKYEWVEFTLPEGNYSETMTIDLMNNAIVEHYLKVGRQNGVLESDIGVKFDTRNFRLGFDPVTGLVMPGVYTNEAFHPDIILLPGCGVDFTHSRLSNLLGIRKRQPFQEGFRITYDDLEGGNIPALLDVDAYQASLKDDTEQGGGGAGGSNSSGSGAEENSNAAAAAMQPVEDMNDHAIRGDTFATRAEEKRAEAEAAAEAAAPAAQPEVEKPQKKPVIKPLTEDSKKRSYNLISNDSTFTQYRSWYLAYNYGDPQTGIRSWTLLCTPDVTCGSEQVYWSLPDMMQDPVTFRSTRQISNFPVVGAELLPVHSKSFYNDQAVYSQLIRQFTSLTHVFNRFPENQILARPPAPTITTVSENVPALTDHGTLPLRNSIGGVQRVTITDARRRTCPYVYKALGIVSPRVLSSRTFKKKKKKKKKK
modifications: left off: small tags and cut ends
**Q.** With B1 as the molecule, how does the particle diameter [1] read?
**A.** 10-50 nm

**Q.** And the “reduction of HER2+ cell numbers” value (MDA-MB-435 (HER2+); 0.5 μM with respect to Dox, by three days)?
**A.** over 75%

**Q.** And the “cell killing with free heregulin ligand as competitive inhibitor” value (MDA-MB-435 (HER2+); eHRG at 10× molar excess, HerDox 0.5 μM)?
**A.** completely inhibited cell killing

**Q.** And the “cell death on parental BT474 (comparative)” value (BT474 parental cells; 48-72 h after treatment)?
**A.** higher cell death compared to Tz and Tz+Pz; also recorded: modestly improved over trastuzumab; also recorded: modestly improved over Tz

**Q.** What about the “enhancement of HerDox toxicity by trastuzumab pre-treatment” value (BT474 parental cells; parental BT474, 4 h pre-treatment) of the same molecule?
**A.** 50%

**Q.** What about the “enhancement of HerDox toxicity by trastuzumab pre-treatment” value (BT474 parental cells; parental BT474, 24 h pre-treatment) of the same molecule?
**A.** ~75%

**Q.** What about the “effect on tumor growth” value [2] of the same molecule?
**A.** essentially prevented tumor growth
